Molecular target: T1, IL10 receptor (IL10 receptor subunit alpha IL10Ra and beta subunit IL10Rb) on Ramos/STAT3-Luc and … (UniProt Q13651 22-578; Q08334 20-325, limits assumed)
T1 sequence (looked up) 1: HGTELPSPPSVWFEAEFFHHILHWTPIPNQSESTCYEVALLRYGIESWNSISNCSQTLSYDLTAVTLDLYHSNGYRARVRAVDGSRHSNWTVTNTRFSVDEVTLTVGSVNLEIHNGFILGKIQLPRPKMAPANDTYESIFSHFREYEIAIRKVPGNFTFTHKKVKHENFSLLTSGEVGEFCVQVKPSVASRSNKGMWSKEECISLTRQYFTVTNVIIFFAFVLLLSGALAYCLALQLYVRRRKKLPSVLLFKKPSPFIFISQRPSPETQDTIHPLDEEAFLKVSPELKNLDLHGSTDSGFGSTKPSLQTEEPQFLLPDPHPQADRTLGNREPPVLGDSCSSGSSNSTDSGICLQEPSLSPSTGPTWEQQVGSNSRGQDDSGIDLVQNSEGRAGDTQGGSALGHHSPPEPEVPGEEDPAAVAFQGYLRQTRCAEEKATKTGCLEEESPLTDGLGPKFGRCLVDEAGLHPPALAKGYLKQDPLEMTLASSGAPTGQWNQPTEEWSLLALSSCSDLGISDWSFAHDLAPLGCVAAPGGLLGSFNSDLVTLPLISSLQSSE
T1 sequence (looked up) 2: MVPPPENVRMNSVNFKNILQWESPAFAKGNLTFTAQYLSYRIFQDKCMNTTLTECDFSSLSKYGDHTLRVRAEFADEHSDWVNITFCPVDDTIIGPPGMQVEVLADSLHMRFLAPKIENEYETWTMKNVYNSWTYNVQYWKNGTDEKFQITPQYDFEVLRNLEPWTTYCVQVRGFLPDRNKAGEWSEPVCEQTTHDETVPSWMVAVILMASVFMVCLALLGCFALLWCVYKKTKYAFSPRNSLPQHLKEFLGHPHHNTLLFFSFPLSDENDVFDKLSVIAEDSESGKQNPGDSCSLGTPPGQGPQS
Experiment: cell-based or functional assay

B1: IL10M4 (Fc-2XG4S-hIL10; Fc is IgG4s) (Fc fusion)
chain: ESKYGPPCPPCPAPPVAGPSVFLFPPKPKDTLMISRTPEVTCVVVDVSQEDPEVQFNWYVDGVEVHNAKTKPREEQFNSTYRVVSVLTVLHQDWLNGKEYKCKVSNKGLPSSIEKTISKAKGQPREPQVYTLPPSQEEMTKNQVSLTCLVKGFYPSDIAVEWESNGQPENNYKTTPPVLDSDGSFFLYSRLTVDKSRWQEGNVFSCSVMHEALHNHYTQKSLSLSLGKGGGGSGGGGSSPGQGTQSENSCTHFPGNLPNMLRDLRDAFSRVKTFFQMKDQLDNLLLKESLLEDFKGYLGCQALSEMIQFYLEEVMPQAENQDPDIKAHVNSLGENLKTLRLRLRRCHRFLPCENKSKAVEQVKNAFNKLQEKGIYKAMSEFDIFINYIEAYMTMKIRN
EC50 of luciferase activity, Ramos/Stat3-Luc reporter cells: 115 pM | EC50 of luciferase activity, TF-1/Stat3-Luc reporter cells: 138 pM | Fold Induction of luciferase activity, Ramos/Stat3-Luc reporter cells: 4.06 fold | Fold Induction of luciferase activity, TF-1/Stat3-Luc reporter cells: 3.78 fold

B2: IL10M5 (Fc-1XG4S-hIL10; Fc is IgG4s) (Fc fusion)
chain: ESKYGPPCPPCPAPPVAGPSVFLFPPKPKDTLMISRTPEVTCVVVDVSQEDPEVQFNWYVDGVEVHNAKTKPREEQFNSTYRVVSVLTVLHQDWLNGKEYKCKVSNKGLPSSIEKTISKAKGQPREPQVYTLPPSQEEMTKNQVSLTCLVKGFYPSDIAVEWESNGQPENNYKTTPPVLDSDGSFFLYSRLTVDKSRWQEGNVFSCSVMHEALHNHYTQKSLSLSLGKGGGGSSPGQGTQSENSCTHFPGNLPNMLRDLRDAFSRVKTFFQMKDQLDNLLLKESLLEDFKGYLGCQALSEMIQFYLEEVMPQAENQDPDIKAHVNSLGENLKTLRLRLRRCHRFLPCENKSKAVEQVKNAFNKLQEKGIYKAMSEFDIFINYIEAYMTMKIRN
EC50 of luciferase activity, Ramos/Stat3-Luc reporter cells: 127 pM | EC50 of luciferase activity, TF-1/Stat3-Luc reporter cells: 146 pM | Fold Induction of luciferase activity, Ramos/Stat3-Luc reporter cells: 3.81 fold | Fold Induction of luciferase activity, TF-1/Stat3-Luc reporter cells: 3.4 fold
